Results taken from the nanobody polyreactivity screen of Harvey et al. (2022).

Experiment: yeast display, Sf9 membrane polyspecificity reagent, FACS + sequencing; frameworks hold sequencing errors
Summary of the method: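 A synthetic nanobody library was expressed on Saccharomyces cerevisiae BJ5465 by galactose induction for 36–48 hours. The library was stained for 1 hour at 4 °C with 10% biotinylated, detergent-solubilized Sf9 membrane reagent and enriched with streptavidin microbeads before FACS. Low and high (top ~1%) gates were set on anti-HA fluorescence for expression and streptavidin fluorescence for reagent binding, and each polyreactivity label reflects the gate of origin.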

| Sequence | polyreactivity (PSR sort gate) |
| --- | --- |
| QVQLVESGGGLVQPGGSLRLSCAASGRIFGYYVMGWYRQAPRKERELVAAITGGGGSTYYADSVKGRFTISRDNEKNTVFLQMNSLKPEDTAVYYCAADLEYTNYDYDYWGQGTQVTVSS | high polyreactivity |
| QVQLVESGGGLVQPGGSLRLSCAASGRNSTYTMGWYRQAPGKERELVATISTDASTNYADSVKGRFTISRDNAKNTVYLQMNSLKPEDTAVYYCAAVIVNQDYDYWGQGTQVTVSS | low polyreactivity |
| QVQLVESGGGLVQPGGSLRLSCAASGRTFRWYAMGWYRQEPGKERELVAAISAGGGSTYYADSVKGRFTISRDNAKYTVSLQLTRVKPEDTAVYYCNRVAWNYGFGSSAYGYWGQGTQVTVSS | high polyreactivity |
| QVQLVESGGGLVQPGGSLRLSCAASGSIFAYNAMGWSRQAPGKERELVAAISSGGRTKYADSVKGRFTITRDNAKITVYFQMNRQKPEDTAVYYCAAESYTGKYSWVWKWYDYWGQGTQVSVSS | low polyreactivity |
| QVQLVESGGGLVQPGGSLRLSCAASGSIFPRNAMGWYRKAPGKERELVAGISYGGSTTYYADSVKGRFTISRDNAKNTVYLQMNSLKPEDTAVYYCAALQQYRRQTTYSSQLYYWGQGTQVTVSS | high polyreactivity |
| QVQLVESGGGLVQPGGSLRLSCAASGSTFEYNAMGWYRQAPGKERELVASSTNYADSVKGRFTISRDNAKNTVYLQMNSLKPEDTAVYYCAREQGVNRNHDYWGQGTQVTVSS | low polyreactivity |
| QVQLVESGGGLVQPGGSLRLSCAASGYTFWQYAMGWYRQAPGKERELVAAISGSGGRTYYADSVKGRFTISRDNAKNTVYLQMNSLKPEDTAVYYCAAPYLRYYLGWYDYWGQGTQVTVSS | high polyreactivity |
| QVQLVESGGGLVQSGASLRLSCAASGSIFDSYTMGWYRQAPGKEREWVAAISWSGGRTYYADSVKGRFTISRDNAKNTVYLQMNTLKPEDTAVYYCAARNVWKYLFGYDYWGQGTQVTVSS | high polyreactivity |
| QVQLVESGGGLVQSGGSLRLSCAASGFIFLNYAMGWYRQAPGKERQLVAAITSGGNTTYADSVKGRFTISRDNAKNTVYLQMNSLKPEDTAVYYCAAEWASRYAVFWAYPKYDYWGQGTQVTVAS | low polyreactivity |
| QVQLVESGGGLVQSGGSLRLSCAASGFTFSRYAMGWYRQAPGKERELVAAIRLRDGITYYADSVKVRFTISRDNAKNTVYLQMNSLKPEDTAVYYFNAVNRTPVSQLDYWGQGTQVTVSS | high polyreactivity |
| QVQLVESGGGLVQSGGSLRLSCAASGIIFCRYAMGWYRQAPGKERELVATITWRGGSTYDADSVKGRFTISRDNAKNTVYLQMNSLKPEDTAVYYCAADNRQSRSFRARAYWGQGNQVTVSS | low polyreactivity |
| QVQLVESGGGLVQSGGSLRLSCAASGLIFGRYAMGWYRQAPGKERELVAAISYSGARTYYADSVKGRFTISRDNEKNTVYLQMNSLKPEDTAVYYCAAGPAFRQSEWWKAYDYWGQGTQVTVSS | high polyreactivity |
| QVQLVESGGGLVQSGGSLRLSCAASGLIFYDNMGWYIQAPGKERELVAAISSSGGSTSYADSVKGRFTISRDNAKNTVYLQMNSLKPEDTAVYYCAADSYPAYLGFVGFDYWGQGTQVTVSS | low polyreactivity |
| QVQLVESGGGLVQSGGSLRLSCAASGNTFTFYAMGWYRQAPGKERELVAVISQIADGCTYYADSVKGRFTISRDNSKNSVYLQMNSLKPEDTAVYYCIAQTWDEYWGQGTQVTVSS | low polyreactivity |
| QVQLVESGGGLVQSGGSLRLSCAASGRTFSKNAMGWYRQAPGKERELVAAISGSGGSTYYADSVKGRFTISRDNAKNTVYLQMNSLKPEDTAVYYCADRYTVRRSGYWGQGTQVTVSS | high polyreactivity |
| QVQLVESGGGLVQSGGSLRLSCAASGSIFNLYAMGWYRQAPGKERELVAAINWSGGSTYYADSVNGRFTISRDNAKNTVYLQMNRLKPEDTAVSYCAADAYSTYYGYEGVYWGQGTQVTVSS | low polyreactivity |
| QVQLVESGGGLVQSGGSLRLSCAASGSINVYYAMGLYRQEPGKERDLVAAISASGGSTYYADSVKGRFTISRDNAKNTFYLQMKSLKPEDTAVYYCAADTFYSYYDMDYWGQGTQVTVSS | low polyreactivity |
| QVQLVESGGGLVQSGGSLRLSCAASGSNFITYAMGWYRQAPGKERELVAAIRDSGDRTYYADSVKGRFTISRDNAKNTVYLQMNSLKPEDTAVYYCNARWQEPLKYDYWGQGTQVTVSS | low polyreactivity |
| QVQLVESGGGLVQSGGSLRLSCAASGSTFVSNAMGWYRQAPGKERELFAAINGSGGITYYADSVKGRFTISRDNAKNTVYLQMNSLKPEDTAVYYCAAEYDGPYTWVDYYYHYGYWGQGTEVTVSS | low polyreactivity |
| QVQLVESGGGLVQSGGSLRLSCAASGSTSTSYVMGWYRQAPGKERELVAVITLRSGVTYYADSVKARFTISRDNPKYTVYLQMNSLKAEDTAVYYCNAATVVYTRVWRGYWGQGTHVTVSS | low polyreactivity |
| QVQLVESGGGLVQSGGSLRLSCAASVIIFAWYAMGWYRQAPGKERELVAAITANSDSTYYADSVKGRFTISRDNAKNTVYLQMNSLKPEDTAVYDCAKRTYSRKFRGAYNYWGQGTQVTVSS | high polyreactivity |
| QVQLVESGGGLVQSGGSLRLSCADSVRTFNYYAMGWYRQAPGKERELVATISWSGVSTRYADSVKGRFTISRDNEKNTVYLQMNSLKPEDTAVYYCNAGYSKRSFYSAYGYWGQGTQVTVSS | high polyreactivity |

| Sequence | polyreactivity (PSR sort gate) |
| --- | --- |
| QVQLVESGGGLVQSGGSLRLTCAASGYIFGYYTMGWYRQAPGKERELVATIRSGGSTYYADSVKGRFTISRDNAKNTVFLHMNSLKAEDTAVYYCAIRVRRISEYGYWGQGTQVTVSS | high polyreactivity |
| QVQLVESGGGLVQSGRSLRLSCAASGSISVWYVMGWYRPAPGKEMELVAAITRSGGSTFYAYSVKGRFTISRDNAKNTVYLQMNSLKPEDTAVYYCAADGGVAWGYGYWGQGTQVTVSS | low polyreactivity |
| QVQLVESGGGLVQTGGILRLSCAASGRIFYYNAMGWYRQEPGKERDFFAAITSSSGSSTYYADSVKGRFTISLDNAKNTVYLQMNSLKPEVTAVYYCAAVGTFIIRYLSRSSYWGQGTQVTVSS | low polyreactivity |
| QVQLVESGGGLVQTGGSLRLSCAASGRIFFDNAMGWYRQAPGKERELVAGIDSGGSTYYADSVKGRFTISRDNAKNTVYLQMNSLKPEDTAVYYCNSDYPPSTQSPLLQSYDYWGQGTQVTVSS | low polyreactivity |
| QVQLVESGGGLVQVGGSLRLSCAASGFTFYDYAMGWYRQAPGKERELVAAMSRGGSTYYADSVKGRFTISRDNAKNTVYLQMNSLKPEDTAVYYCNARPTRIYHGMGYWGQGTQVTVSW | low polyreactivity |
| QVQLVESGGGLVQVGGSLRLSCAASGGIFSGNAMGWYRQAPGKERELVAGITNCGRTSYADSVKGRFTISRDNAKNTDYFQMNSLKPEDTAVYYCNAKVGAYLNYGYWGQGTQVTVSS | low polyreactivity |
| QVQLVESGGGLVQVGGSLRLSCAASGITLSYYAMGWYRQAPGKERELVASITVSRTSTYYADSVKGRFTISRDNAKNTVYLQMNSLKPEDTAVYYCAAYAYQYRFSGYGYWGQGTQVTVSS | low polyreactivity |
| QVQLVESGGGLVRAGGSLRLSCAASGSIFKYYAMGWYRQAPGKDRELVAAISWSGGSTFYADSVKGRFTISRDNAKNTVYLQMNSLKPEDTAVFYCARYKLRSGRSGDHDVYWGQGTQVTVSS | high polyreactivity |
| QVQLVESGGGLVRAGGSLRLSCAASGSTFPFYAMGWYRQAPGKERELVAAITSGGSTYADSVKGRFTISRDNAKNTVYFQMNSLKAEVTAVYYCAASWPRWWRFGYWGQGTQVTVSS | low polyreactivity |
| QVQLVESGGGLYQAGGSLRLSCAASGIIFKSYLMGWDRQAPGKEREFVARITYRGGSTYYADSVKGRFTISRDNAKYTFNLQMNSLNQEDTAVYYCIARVRRRRYKYDYWGQGTQVTVST | high polyreactivity |
| QVQLVESGGGLYQARGSLRLSCAASGSIFLDNAKGWYRQAPGKERELVAAISSGGNTNYADSVKGRFTISRDNAKNTVYLQINSLKPEDTAVYYCAADPTKWHYYLPRYYYWGQGTQVTLSS | low polyreactivity |
| QVQLVESGGGRVQAGGSLRLSCAASGITFDANAMGWDRQAPGKERELVARISSGGSTNYADSVKGRFTISRDNAKNTVYLQMNSLKPEDTAVYYCAKSYQYGFDYWGQGTQVNVSS | low polyreactivity |
| QVQLVESGGGRVQAGGSLRLSCAASGSIFFIYAMGWDRQAPSKEREFVAAISYGGGSTYYADSVKGRFTISRDNAKNTVYLQMNSLKPEDTAVYYCNADVPKSLLLYYPWGYGYWGQGTQVNVSS | low polyreactivity |
| QVQLVESGGGSVQAGGSLRLSCAASGFTIRTYAMGWYRQAPGKERELVAAITSSGSSTYYAYSVKGRFTISRDNAKNTVYLQMNSLKPEDTAVYYCAADAPRSYRFGYWGQGTQVTVSA | high polyreactivity |
| QVQLVESGGGVVQAGGSLRISCAATGFIFRWYAMGWYIQAPGKERELVASINWSGSRTNYADPVKGRFTISRDNAKNTVYLQMNSLKPEDTAVYYCATYGTTSGYDSWGQGTQVTVSS | high polyreactivity |
| QVQLVESGGGVVQAGGSLRLSCAASGFIFHQNAMGWYRPAPGKERELVAAITRSGTSTYYADSVKGRFTISRDYAKNTVYLQMYSLKPEDTAVYYCANDPVRVGRFGYEYWGQGTQVTVSS | low polyreactivity |
| QVQLVESGGGVVQAGGSLRLSCAASGFIFPLYTMGWSRQAPGKERELVAAITGSGGSTYYADSVKGRFTISRDNAKNTVYLQMNSLKPEDTAVYYCAKDYTYGMDWGQGTQVTVSS | low polyreactivity |
| QVQLVESGGGVVQAGGSLRLSCAASGFIFYYNTMGWYRQAPGKERELVASMTWSGDTTYYADSVKGRFTISRDNAKNTVYLQMNSLTPEDTAVYYCAAVHYDPYRRYDYWGQGTQVTVSS | low polyreactivity |
| QVQLVESGGGVVQAGGSLRLSCAASGFTPGNVMGGYRQAPGKERELVAAISWTGDSTYYAASVKGRFTISRDNAKNTVYLQMNSLKPEDTAVYYCAADGVPGRALDYEYWGQGTQVTVSS | high polyreactivity |
| QVQLVESGGGVVQAGGSLRLSCAASGGIILEYVMGWYRQARGEERELVAAISWSGTSTYYADSVKGRFTISRDNAKNTVYLQMNSLKPEDTAVYYCAKSEGVYSGWYGVDDYDYWGQGTQVTVSS | low polyreactivity |
| QVQLVESGGGVVQAGGSLRLSCAASGINFGRNTMGWYRQAPGKERELVAAIDSGGNTYADSVKGRFTISRDNAKNTVYLQMNSLKPEDTAVYYCAVDGGEFSSYGYWGQGTQVTVSS | low polyreactivity |
